The source of these data is patent publication US20250042956A1 (University of California, published 2025).

The target of one assay is T1, AT4G35510.1 TRBIP1 (Arabidopsis thaliana).
T1 construct: Endogenous protein found by mass spectrometry
T1 chain: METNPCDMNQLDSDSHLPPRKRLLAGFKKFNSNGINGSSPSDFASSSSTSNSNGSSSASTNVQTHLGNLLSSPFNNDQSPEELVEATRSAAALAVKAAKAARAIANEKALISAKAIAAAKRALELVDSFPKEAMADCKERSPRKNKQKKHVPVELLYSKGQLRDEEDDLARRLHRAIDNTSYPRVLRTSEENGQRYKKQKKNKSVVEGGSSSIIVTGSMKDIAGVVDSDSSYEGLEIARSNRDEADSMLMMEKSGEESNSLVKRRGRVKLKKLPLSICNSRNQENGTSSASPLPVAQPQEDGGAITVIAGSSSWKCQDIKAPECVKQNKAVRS
The assay can be described thus: IP-MS rep 1. A digest of the protocol:
(§1)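 Unopened floral buds (ten grams) from wild-type and FLAG-tagged transgenic Arabidopsis lines were ground in liquid nitrogen, homogenised in 25 mL IP buffer and passed through Miracloth. The lysates were mixed with 250 μL anti-FLAG M2 magnetic beads for 2 hours at 4° C, then washed and eluted in TBS containing 250 μg/mL 3×FLAG peptides. Peptide counts for co-purified proteins were obtained by mass spectrometry of the eluted proteins after trichloroacetic acid precipitation.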

The next assay concerns the target T2, AT5G51230.1 EMF2 (Arabidopsis thaliana, UniProt Q8L6Y4 1-631).
T2 construct: Endogenous protein found by mass spectrometry; also called EMBRYONIC FLOWER 2
T2 sequence (looked up): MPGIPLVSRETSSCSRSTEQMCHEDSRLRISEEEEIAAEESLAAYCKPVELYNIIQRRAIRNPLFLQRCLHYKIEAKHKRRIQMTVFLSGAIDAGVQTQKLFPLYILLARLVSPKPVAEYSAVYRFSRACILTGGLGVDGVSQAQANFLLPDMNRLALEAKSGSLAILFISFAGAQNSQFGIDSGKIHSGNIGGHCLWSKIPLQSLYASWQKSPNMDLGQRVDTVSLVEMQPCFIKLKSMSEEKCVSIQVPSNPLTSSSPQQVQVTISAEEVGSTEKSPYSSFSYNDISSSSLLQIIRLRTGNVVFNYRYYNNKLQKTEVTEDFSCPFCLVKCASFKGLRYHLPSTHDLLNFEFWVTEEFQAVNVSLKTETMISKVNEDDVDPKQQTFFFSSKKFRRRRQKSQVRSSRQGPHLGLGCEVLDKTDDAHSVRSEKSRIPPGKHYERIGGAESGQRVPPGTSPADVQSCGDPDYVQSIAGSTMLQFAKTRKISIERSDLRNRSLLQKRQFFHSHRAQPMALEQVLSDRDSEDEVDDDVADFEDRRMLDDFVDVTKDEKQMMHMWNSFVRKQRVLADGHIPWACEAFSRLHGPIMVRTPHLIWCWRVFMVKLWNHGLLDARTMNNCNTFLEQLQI
The assay can be described thus: IP-MS rep 1. In a few lines: as §1

In assay [1] the target is T3, AT5G67580.1 TRB2 (Arabidopsis thaliana, UniProt Q9FJW5 1-299).
T3 construct: Endogenous protein found by mass spectrometry
T3 sequence: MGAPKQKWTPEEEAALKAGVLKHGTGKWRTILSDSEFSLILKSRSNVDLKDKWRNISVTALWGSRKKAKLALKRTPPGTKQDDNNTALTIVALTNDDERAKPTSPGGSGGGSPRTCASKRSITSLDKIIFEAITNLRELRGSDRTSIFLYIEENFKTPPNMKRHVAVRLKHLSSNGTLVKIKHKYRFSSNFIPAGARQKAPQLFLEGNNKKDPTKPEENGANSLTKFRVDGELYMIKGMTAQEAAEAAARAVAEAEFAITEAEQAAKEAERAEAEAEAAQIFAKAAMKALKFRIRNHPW
Put plainly: IP-MS rep 1. A digest of the protocol:
as §1

The target of assay [2] is T4, AT3G10480.3 NAC050 (Arabidopsis thaliana, UniProt Q9SQX9 1-447, limits assumed).
T4 construct: Endogenous protein found by mass spectrometry
T4 sequence (looked up): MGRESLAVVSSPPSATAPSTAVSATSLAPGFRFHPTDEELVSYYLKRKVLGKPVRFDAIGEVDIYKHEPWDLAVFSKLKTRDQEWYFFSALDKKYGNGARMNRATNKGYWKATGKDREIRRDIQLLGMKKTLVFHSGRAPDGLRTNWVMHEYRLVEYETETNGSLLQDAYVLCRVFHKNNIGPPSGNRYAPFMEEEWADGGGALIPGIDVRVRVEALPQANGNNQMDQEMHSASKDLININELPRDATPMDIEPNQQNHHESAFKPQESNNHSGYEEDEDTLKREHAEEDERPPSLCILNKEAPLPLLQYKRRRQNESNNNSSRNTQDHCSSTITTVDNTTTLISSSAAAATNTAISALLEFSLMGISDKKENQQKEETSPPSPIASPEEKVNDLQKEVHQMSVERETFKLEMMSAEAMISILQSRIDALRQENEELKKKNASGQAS
The assay can be described thus: IP-MS rep 1. In a few lines: as §1

The next assay deals with T5, AT3G49850.1 TRB3 (Arabidopsis thaliana, UniProt Q9M2X3 1-295).
T5 construct: Endogenous protein found by mass spectrometry
T5 sequence: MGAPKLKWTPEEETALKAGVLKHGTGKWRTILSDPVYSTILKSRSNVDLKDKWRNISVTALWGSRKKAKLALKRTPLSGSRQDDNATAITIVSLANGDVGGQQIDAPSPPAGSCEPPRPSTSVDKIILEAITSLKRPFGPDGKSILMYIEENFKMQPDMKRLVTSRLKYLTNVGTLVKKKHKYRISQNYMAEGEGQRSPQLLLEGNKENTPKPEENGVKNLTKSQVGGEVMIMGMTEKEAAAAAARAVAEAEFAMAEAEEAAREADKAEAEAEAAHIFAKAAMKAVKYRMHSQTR
The assay can be described thus: IP-MS rep 1. A digest of the protocol:
as §1

The target in a further assay is T6, AT5G08450.1 HDC1 (Arabidopsis thaliana).
T6 construct: Endogenous protein found by mass spectrometry
Put plainly: IP-MS rep 2. A digest of the protocol: as §1

Assay [3] has as its target T3, AT5G67580.1 TRB2. The assay can be described thus: IP-MS rep 2. In a few lines:
as §1

Assay [4] concerns the target T4, AT3G10480.3 NAC050. Put plainly: IP-MS rep 2. In a few lines:
as §1

A further assay concerns the target T7, AT1G49950.3 TRB1 (Arabidopsis thaliana, UniProt Q8VWK4 1-300, limits assumed).
T7 construct: Endogenous protein found by mass spectrometry
T7 sequence: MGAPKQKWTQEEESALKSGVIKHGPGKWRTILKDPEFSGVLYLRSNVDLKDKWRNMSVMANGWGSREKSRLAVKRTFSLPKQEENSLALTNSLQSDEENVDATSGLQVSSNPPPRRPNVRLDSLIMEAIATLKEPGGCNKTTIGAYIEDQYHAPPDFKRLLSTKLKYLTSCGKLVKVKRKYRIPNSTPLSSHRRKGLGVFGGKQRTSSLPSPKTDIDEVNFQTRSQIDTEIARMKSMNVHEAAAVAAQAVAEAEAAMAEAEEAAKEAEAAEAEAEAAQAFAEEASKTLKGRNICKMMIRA
Put plainly: IP-MS rep 2. In a few lines: as §1

B1: TRBIP2 (bait of the TRBIP2 IP-MS) (other, not shown: small tags and cut ends)
chain: MATNACLESDSLLPPRKRLLAGFKNQNSRISNESPSPPFASSSSSTTTSNGSSASAVVHTHHLDHLLNDQTRSPEELAQASKATAALAVKVAKAARATANEKAIIASKAVAAAKNALELFASFPAAETVSCKEPRLIRAINNSPRVLTDCSGHRNKKQKTLTSTMNDGNDVAGVVDSDDGTRVNGKLLLCDNTLKEKTEEESSSLGKRRGRVKLPLSMCAYKDQENGITLEENNLSVSKSEGYNGGVAQVIERPSWKCQDLKSPECVKQNKVVRS
notes: tag and its position not described; also called TRBIP2-1; TRBIP2-2
Regarding B1, the IP-MS count came out at 1 in the assay with AT4G35510.1 TRBIP1; 0 in the assay with AT5G51230.1 EMF2; 43 with AT5G67580.1 TRB2 [1]; 1 with AT3G10480.3 NAC050 [2]; 8 with AT3G49850.1 TRB3; 0 with AT5G08450.1 HDC1. Further, the IP-MS count in the assay with AT5G67580.1 TRB2 [3] is 3; in the assay with AT3G10480.3 NAC050 [4], 0; with AT1G49950.3 TRB1, 5.
